Our source for the Kd values is article PMC5686756 (2017).

Experiment [1] has as its target T1, GB1-tagged ks-vFLIP (residues 1 to 188) (Kaposi's sarcoma-associated herpesvirus …, UniProt Q76RF1 1-188). Nature of the experiment: ITC; in buffer. (ITC needs no label: the signal is the heat of the interaction.)
Experiment [2] has as its target T1, GB1-tagged ks-vFLIP (residues 1 to 188). Put plainly: ITC; apparent Kd, competition in presence of spIKKγ (deionized water).

B1: IKKγ fragment encompassing residues 150 to 272 (domain or fragment)
chain: LGELQESQSRLEAATKECQALEGRARAASEQARQLESEREALQQQHSVQVDQLRMQGQSVEAALRMERQAASEEKRKLAQLQVAYHQLFQEYDNHIKSSVVGSERKRGMQLEDLKQQLQQAEE
As for B1, the Kd in experiment [1] came out at 0.2 µM; in experiment [2], 30.4 µM.
